Values quoted from earlier work as cited in PMC9464413.

Biological target: p97 (Homo sapiens) (UniProt P55072)
Test: SPR

Sequence of UniProt P55072 (P55072 2-806): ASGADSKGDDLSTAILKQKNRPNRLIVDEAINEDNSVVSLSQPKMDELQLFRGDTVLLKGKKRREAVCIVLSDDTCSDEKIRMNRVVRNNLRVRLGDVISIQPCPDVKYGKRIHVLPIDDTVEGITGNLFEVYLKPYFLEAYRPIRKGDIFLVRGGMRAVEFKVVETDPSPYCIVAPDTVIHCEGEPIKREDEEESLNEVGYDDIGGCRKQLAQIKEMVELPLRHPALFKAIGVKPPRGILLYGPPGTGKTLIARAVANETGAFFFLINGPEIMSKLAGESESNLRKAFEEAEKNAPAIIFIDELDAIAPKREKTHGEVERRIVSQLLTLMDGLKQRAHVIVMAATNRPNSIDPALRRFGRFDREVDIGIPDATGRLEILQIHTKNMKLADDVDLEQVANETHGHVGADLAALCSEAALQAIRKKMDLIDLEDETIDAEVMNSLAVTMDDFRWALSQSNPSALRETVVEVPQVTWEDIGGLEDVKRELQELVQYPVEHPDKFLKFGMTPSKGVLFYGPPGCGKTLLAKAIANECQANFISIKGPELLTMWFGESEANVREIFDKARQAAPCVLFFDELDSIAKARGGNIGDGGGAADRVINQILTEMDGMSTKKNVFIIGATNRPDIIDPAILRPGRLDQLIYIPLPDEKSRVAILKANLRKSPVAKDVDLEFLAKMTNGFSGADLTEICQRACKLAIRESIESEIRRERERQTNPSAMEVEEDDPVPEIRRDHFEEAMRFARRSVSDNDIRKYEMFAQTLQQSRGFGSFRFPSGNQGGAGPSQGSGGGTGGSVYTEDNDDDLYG

Row | Kd | Substance
1 | 29 nM | p37 (from UniProt Q14CS0)
2 | 20 nM | p47 (from UniProt Q9UNZ2)
